Reference: patent publication US20260103529A1 (CONFO THERAPEUTICS N V, published 2026)

How the values were obtained:
Assay in all cases: flow cytometry on HEK293T cells transiently expressing Flag-tagged receptor; receptor presence confirmed by anti-Flag detection
[1] = biological target: T1, human MC5R (melanocortin 5 receptor) (human, UniProt P33032 1-325)
T1 construct: whole, on cells; Flag-tagged in flow cytometry; transiently expressed in HEK293T/HEK293 cells

[2] = biological target: T2, human MC1R (melanocortin 1 receptor) (human, UniProt Q01726 1-317)
T2 construct: whole, on cells; Flag-tagged in flow cytometry; transiently expressed in HEK293T/HEK293 cells; also called hMC1R
T2 sequence (Q01726 whole entry): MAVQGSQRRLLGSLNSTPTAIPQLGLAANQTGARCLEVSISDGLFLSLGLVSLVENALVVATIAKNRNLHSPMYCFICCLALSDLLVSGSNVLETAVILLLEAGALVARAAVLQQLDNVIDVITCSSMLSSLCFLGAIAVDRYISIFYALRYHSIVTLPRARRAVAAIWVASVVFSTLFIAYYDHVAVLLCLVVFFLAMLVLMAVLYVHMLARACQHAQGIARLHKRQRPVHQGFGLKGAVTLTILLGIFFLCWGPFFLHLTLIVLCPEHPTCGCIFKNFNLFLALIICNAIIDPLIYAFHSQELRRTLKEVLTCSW

[3] = biological target: T3, human MC2R (melanocortin 2 receptor) (human, UniProt Q01718 1-297)
T3 construct: whole, on cells; Flag-tagged, transiently expressed in HEK293T cells
T3 sequence (Q01718 whole entry): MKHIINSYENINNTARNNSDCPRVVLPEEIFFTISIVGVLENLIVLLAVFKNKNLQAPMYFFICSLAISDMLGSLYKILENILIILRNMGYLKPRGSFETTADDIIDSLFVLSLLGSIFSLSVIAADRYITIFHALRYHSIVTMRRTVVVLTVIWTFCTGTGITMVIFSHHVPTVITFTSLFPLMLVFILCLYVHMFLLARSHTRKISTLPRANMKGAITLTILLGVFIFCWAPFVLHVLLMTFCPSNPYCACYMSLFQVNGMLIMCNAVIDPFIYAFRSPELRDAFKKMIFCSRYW

[4] = biological target: T4, human MC3R (melanocortin 3 receptor) (human, UniProt P41968 1-323)
T4 construct: whole, on cells; Flag-tagged in flow cytometry; transiently expressed in HEK293T/HEK293 cells
T4 sequence (P41968 whole entry): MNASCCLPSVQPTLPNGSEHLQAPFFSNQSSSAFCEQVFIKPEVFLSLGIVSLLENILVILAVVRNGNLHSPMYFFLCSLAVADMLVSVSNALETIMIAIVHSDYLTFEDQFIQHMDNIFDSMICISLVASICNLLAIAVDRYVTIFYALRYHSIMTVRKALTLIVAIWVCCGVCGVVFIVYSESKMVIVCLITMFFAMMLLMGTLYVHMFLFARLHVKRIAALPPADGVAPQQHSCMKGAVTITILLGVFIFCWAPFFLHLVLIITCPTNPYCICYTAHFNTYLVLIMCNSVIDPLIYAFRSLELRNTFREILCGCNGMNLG

Measured: binding result

T1 sequence (P33032 whole entry): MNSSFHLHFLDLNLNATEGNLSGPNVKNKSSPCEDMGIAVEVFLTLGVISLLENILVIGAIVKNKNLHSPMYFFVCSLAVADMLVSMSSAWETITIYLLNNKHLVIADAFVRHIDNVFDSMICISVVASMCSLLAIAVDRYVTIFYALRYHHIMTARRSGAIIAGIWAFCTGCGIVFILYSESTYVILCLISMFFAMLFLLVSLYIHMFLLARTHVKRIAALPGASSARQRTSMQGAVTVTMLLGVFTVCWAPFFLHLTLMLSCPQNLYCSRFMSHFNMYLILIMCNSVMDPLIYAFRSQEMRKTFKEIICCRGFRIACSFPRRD

B1: pN0162 (VHH)
VHH: QVQLVESGGGLVQPGGSLRLSCAASGSAFSLNVMGWYRQTPGNQRALVAEITKDGSTNYADSAKGRFTISRDNAKNTVHLQMDSLKPEDTAVYYCKARTGRIVRPLDYWGQGTQVTVSS
notes: Agonist nanobody from llama immunisation, purified from E. coli; also called pN162
no binding (tested: 1 µM): all assays above
